Reference: patent publication US20210277126A1 (LEGEND BIOTECH IRELAND, published 2021)

T1: cynomolgus monkey CLL1 ECD (65-265) (cynomolgus monkey)
T1 construct: Expressed in 293-F cells and purified by IMAC; also called cynoCLL1; recombinant cynomolgus monkey CLL1 protein
T1 chain: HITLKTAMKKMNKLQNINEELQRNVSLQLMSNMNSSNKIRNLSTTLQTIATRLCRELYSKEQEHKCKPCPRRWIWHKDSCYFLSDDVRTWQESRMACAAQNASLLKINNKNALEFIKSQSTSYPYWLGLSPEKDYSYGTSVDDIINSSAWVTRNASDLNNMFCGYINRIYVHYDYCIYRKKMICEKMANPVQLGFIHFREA

T2: human CLL1 ECD (65-265) (human, UniProt Q5QGZ9 65-265)
T2 construct: Expressed in 293-F cells and purified by IMAC; also called huCLL1; recombinant human CLL1 protein
T2 sequence: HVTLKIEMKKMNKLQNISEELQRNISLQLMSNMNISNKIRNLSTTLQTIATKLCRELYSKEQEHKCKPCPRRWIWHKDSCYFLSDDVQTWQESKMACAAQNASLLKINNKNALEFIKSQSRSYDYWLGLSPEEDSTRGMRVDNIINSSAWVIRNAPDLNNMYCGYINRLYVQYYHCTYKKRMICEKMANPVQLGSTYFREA


Key:
[1] = target: T1, cynomolgus monkey CLL1 ECD (65-265); experiment: SPR (Biacore T200), sdAb supernatant, recombinant cynomolgus CLL1
Procedure: (§1) The unique clones were grown in 2YT medium and induced by IPTG for sdAb expression in the supernatant. The supernatants of unique binders were analyzed for their ability to bind to a CLL1-expressing HKE293/huCLL-1 cell line and cancer cell line AML193 using a FACS assay. Affinities of selected binders in supernatants to recombinant human and cynomolgus monkey CLL1 proteins were determined by surface plasmon resonance (SPR) on a BIACORE® T200 instrument. The dissociation phase was used to calculate the kd values for each sdAb.

human CLL1 ECD (65-265) = target: T2, human CLL1 ECD (65-265); experiment: SPR (Biacore T200), sdAb supernatant, recombinant human CLL1
Procedure: as §1

| Binder | Kd [1] [nM] | Kd (human CLL1 ECD (65-265)) [nM] |
| --- | --- | --- |
| AS83591 sdAb (VHH, Camel sdAb tested as E. coli culture supernatant; not shown: C-terminal His-tag encoded by the soluble expression vector) VHH: QVQLVESGGGLVQPGGSLRLSCAASGFLFSIYDMNWVRQAPGKGVEWIAGITNNEHTTAYADSVKGRFTISRDNTKNTLFLQMNSLKPEDTAMYYCQRDDGQVRGQGTQVTVSS | 19 | 31 |
| AS82658 sdAb (VHH, Camel sdAb tested as E. coli culture supernatant; not shown: C-terminal His-tag encoded by the soluble expression vector) VHH: QVQLVESGGGSVQAGGALSLSCAASGYTVRIDYMGWYRQTPGKGREPVATIASNGGTAYADSVEGRFTISQDNAKNSVYLQMNTLKPGDTAMYYCAAGTWPTLTYFGQGTQVTVSS | 1.9 | 1.6 |
| AS82480 sdAb (VHH, Camel sdAb tested as E. coli culture supernatant; not shown: C-terminal His-tag encoded by the soluble expression vector) VHH: EVQLVESGGGSVQAGGSLRLSCAASGVTYSSACMGWFRQAPGKGREVVAVLYAGGSTTHYASSVKERFTISQDNAKNTVYLQMNSLKPEDTAVYYCAAALGDRSSCEWRYWGQGTQVTVSS | 47 | 1.5 |
| AS83457 sdAb (VHH, Camel sdAb tested as E. coli culture supernatant; not shown: C-terminal His-tag encoded by the soluble expression vector) VHH: QVQLVESGGGLVQPGGSLRLSCAASGFFFSIYDMNWFRQAPGKGLEWVSGITGNGYTTAYADSVKGRFTISRDNAKNTLYLQLNSLKSEDTAMYYCAQGSNRGRGTQVTVSS | 19 | 31 |
| AS83010 sdAb (VHH, Camel sdAb tested as E. coli culture supernatant; not shown: C-terminal His-tag encoded by the soluble expression vector) VHH: QVQLVESGGGLVQPGGSLRLSCVASGFFFSAYDMNWFRQAPGKGLEWVSGITGNGYTTAYADSVKGRFTISRDNAKNTLYLQLNSLKSEDTAMYYCTEGDNRGQGTQVTVSS | 3.2 | 8.4 |
| AS82494 sdAb (VHH, Camel sdAb tested as E. coli culture supernatant; not shown: C-terminal His-tag encoded by the soluble expression vector) VHH: QVQLVESGGGLVQPGGSLRLSCAASGFTFSVYDMNWFRQAPGKGLEWVSGITGNGYTTSYADSVKGRFTISRDNAKNTLYLQLNSLKSEDTAMYYCAKETNRGQGTQVTVSS | 98 | 21 |
| AS83478 sdAb (VHH, Camel sdAb tested as E. coli culture supernatant; not shown: C-terminal His-tag encoded by the soluble expression vector) VHH: QVHLMESGGGLVQPGESLRLSCAASGFIFANYEMSWVRQAPGKVLEWVSGINSRGNATYYADSVKGRFTISRDNAEHTLYLQMNSLKPEDTAMYHCVVGGMTTDQGSPDFYWGQGTQVTVSS | 1.4 | 2 |
| AS82544 sdAb (VHH, Camel sdAb tested as E. coli culture supernatant; not shown: C-terminal His-tag encoded by the soluble expression vector) VHH: EVQLVESGGALVQPGGSLRLSCTASGFLFRVYDMNWVRQAPGKGVEWIVGITNNGYTTAYADSVKGRFTISRDNTENTLFLQMNSLKPEDTAMYYCQTDNGRVRGQGTQVTVSS | 39 | 8.6 |
| AS82718 sdAb (VHH, Camel sdAb tested as E. coli culture supernatant; not shown: C-terminal His-tag encoded by the soluble expression vector) VHH: QVQLAESGGGLVQTGGSLRLSCTASGLNFGLYAMGWFRQAPGKEREGVSCINGGGGITVYSDFVKSRFTISRDNAKNTLYLQMNSLKPDDTATYYCAADRSPFGSCSSDWSRSSDWSRMAEKFGYWGQGTQVTVSS | 2.6 | 24 |
| AS83180 sdAb (VHH, Camel sdAb tested as E. coli culture supernatant; not shown: C-terminal His-tag encoded by the soluble expression vector) VHH: QVQLVESGGGSVQAGGSLRLSCVVSAATNCRYIAWYRQAPGKAREFVSTLGSDGNTNYADSVKGRFTISQGNIKNMAYLEMNSLKPEDTGMYYCGTRCQIGDDWRSSDWAQGTQVTVSS | 2.4 | 3 |

The next binders have a lower Kd [1] than those just listed; values first:

| Kd [1] [nM] | Kd (human CLL1 ECD (65-265)) [nM] | Binder |
| --- | --- | --- |
| 0.22 | 0.44 | AS83791 sdAb (VHH, Tested as E. coli culture supernatant; not shown: C-terminal His-tag encoded by the soluble expression vector) VHH: QVKLVESGGGLVQPGGSLRLSCVASGFAFSSADMSWVRQAPGKGVEAVSVINRDGASTYYADSVKGRFTISRDNAKSTLYLQMNSLKPEDTAMYHCAVVPENEYESGSYNYWGQGTQVTVSS |
| 0.59 | 0.83 | AS82505 sdAb (VHH, Camel sdAb tested as E. coli culture supernatant; not shown: C-terminal His-tag encoded by the soluble expression vector) VHH: QVQLAESGGGLVQPGGSLRLSCVASGFTFSSYDMSWVRQAPGKGVEWVSTINSGGGSTYYAESAKGRFTISRDNAKNTLYLQLNSLKTEDTAMYYCVKGFPDDDGPGELSREYNYWGQGTQVTVSS |
| 0.26 | 1 | AS83183 sdAb (VHH, Camel sdAb tested as E. coli culture supernatant; not shown: C-terminal His-tag encoded by the soluble expression vector) VHH: QVHLVESGGGSVQSGGSLRLSCAASGYAYRSYCMGWFRQAPGKVLEGVAAIESDGTTTYADSVMGRFTISQDNAKNALYLQMNSLKPEDTAMYHCAAVKGSCDSASSDTPSYWGQGTQVTVSS |
| 0.24 | 0.37 | AS83431 sdAb (VHH, Camel sdAb tested as E. coli culture supernatant; not shown: C-terminal His-tag encoded by the soluble expression vector) VHH: QVRLVESGGGSVQSGGSLRLSCAASGYARSSTCLGWFRQAPGKEVEGVAIIGRDGSTGYADSVKGRFTISQDNAKNTLYLHMDSLKPEDTAMYYCAAVEGGCEVSEGTGEQQLAYWGQGTQVTVSS |
| 0.63 | 7.3 | AS83309 sdAb (VHH, Camel sdAb tested as E. coli culture supernatant; not shown: C-terminal His-tag encoded by the soluble expression vector) VHH: EVQLVESGGDLVRPGGSLRLSCAASGFTFSIYDMNWVRQAPGKGLEWVAGISGNGYSTSYAESVKGRFTISKDNAKNTVYLQLSSLKFEDTAMYYCVRGGEKWDENDLRRKGQGTQVTVSS |
